Experimental data from PMC9482650, “Quantitative fragmentomics allow affinity mapping of interactomes” (Nature Communications, 2022).

T1: LIN7C, Q9NUP9
T1 sequence (Q9NUP9 88-185, limits assumed, looked up): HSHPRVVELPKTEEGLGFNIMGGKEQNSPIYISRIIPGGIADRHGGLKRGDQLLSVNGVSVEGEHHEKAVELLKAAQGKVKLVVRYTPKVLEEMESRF

T2: GRIP1_4, Q9Y3R0
T2 sequence (Q9Y3R0 467-571, limits assumed, looked up): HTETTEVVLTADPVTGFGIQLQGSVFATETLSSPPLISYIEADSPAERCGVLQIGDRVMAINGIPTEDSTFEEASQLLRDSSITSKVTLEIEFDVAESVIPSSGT

T3: SNTB1, Q13884
T3 sequence (Q13884 107-205, limits assumed, looked up): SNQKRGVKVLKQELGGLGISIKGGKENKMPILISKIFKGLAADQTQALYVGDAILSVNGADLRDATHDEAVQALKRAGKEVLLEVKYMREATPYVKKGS

T4: APBA3_1, O96018
T4 sequence (O96018 389-490, limits assumed, looked up): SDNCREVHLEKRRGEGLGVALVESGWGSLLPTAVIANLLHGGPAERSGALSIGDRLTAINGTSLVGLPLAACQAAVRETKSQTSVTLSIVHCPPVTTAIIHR

T5: NHERF3_4, Q5T2W1
T5 sequence (Q5T2W1 373-468, limits assumed, looked up): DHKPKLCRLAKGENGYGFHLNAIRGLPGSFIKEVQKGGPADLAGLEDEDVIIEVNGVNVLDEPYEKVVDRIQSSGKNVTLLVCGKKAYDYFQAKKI

T6: ARHGEF11, O15085
T6 sequence (O15085 42-136, limits assumed, looked up): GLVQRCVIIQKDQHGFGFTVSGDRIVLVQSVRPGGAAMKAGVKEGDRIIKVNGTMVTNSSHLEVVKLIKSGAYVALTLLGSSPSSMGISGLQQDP

T7: HTRA4, P83105
T7 sequence (P83105 378-476, limits assumed, looked up): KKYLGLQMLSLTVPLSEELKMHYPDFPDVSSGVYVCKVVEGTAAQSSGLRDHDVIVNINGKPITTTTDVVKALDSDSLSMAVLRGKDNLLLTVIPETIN

T8: TIAM2, Q8IVF5
T8 sequence (Q8IVF5 885-986, limits assumed, looked up): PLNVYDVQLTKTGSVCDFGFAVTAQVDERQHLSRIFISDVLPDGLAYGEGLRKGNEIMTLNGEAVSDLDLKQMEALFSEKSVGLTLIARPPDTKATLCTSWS

T9: PDZRN3_1, Q9UPQ7
T9 sequence (Q9UPQ7 244-349, limits assumed, looked up): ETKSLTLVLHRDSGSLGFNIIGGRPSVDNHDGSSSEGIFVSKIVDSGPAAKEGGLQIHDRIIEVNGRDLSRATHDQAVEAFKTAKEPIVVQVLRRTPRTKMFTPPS

T10: LNX2_3, Q8N448
T10 sequence (Q8N448 463-564, limits assumed, looked up): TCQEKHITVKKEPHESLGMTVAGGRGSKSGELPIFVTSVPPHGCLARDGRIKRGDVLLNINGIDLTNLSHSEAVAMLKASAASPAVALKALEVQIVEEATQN

T11: PDZD2_2, O15018
T11 sequence (O15018 329-429, limits assumed, looked up): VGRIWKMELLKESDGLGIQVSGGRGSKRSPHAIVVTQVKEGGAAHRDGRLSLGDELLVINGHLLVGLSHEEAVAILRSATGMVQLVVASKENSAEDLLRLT

T12: SNTG2, Q9NY99
T12 sequence (Q9NY99 68-166, limits assumed, looked up): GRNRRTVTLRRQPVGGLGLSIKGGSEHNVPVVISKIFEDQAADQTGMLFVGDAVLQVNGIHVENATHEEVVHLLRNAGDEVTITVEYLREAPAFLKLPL

B1: CTNND2, Q9UQB3 (peptide)
chain: HYPASPDSWV
B2: CCL24, O00175 (peptide)
chain: QRYPGNQTTC

target: SNX27, Q96L92; test: holdup assay; parameters: key: below the threshold = too weak to quantify, mostly under pKd 3.1 to 4; settings: plain residues with an end cap or a label only (N-terminal biotin on a linker: ado-ado)

With B1 as the binder, how does the pKd read?
The pKd was 5.06.

How did the pKd turn out when B2 was run?
Its pKd is “below the threshold”.

target: DLG1_3, Q12959; test: holdup assay; parameters: key: below the threshold = too weak to quantify, mostly under pKd 3.1 to 4; settings: plain residues with an end cap or a label only (N-terminal biotin on a linker: ado-ado)
Sequence (Q12959 457-571): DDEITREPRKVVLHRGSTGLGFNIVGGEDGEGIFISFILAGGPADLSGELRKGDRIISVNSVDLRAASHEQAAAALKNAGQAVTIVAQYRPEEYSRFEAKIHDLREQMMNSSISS

Which pKd does the source give for B1 here?
The pKd was “below the threshold”.

How did the pKd turn out when B2 was run?
Its pKd is 3.76.

target: T1, LIN7C, Q9NUP9; test: holdup assay; parameters: key: below the threshold = too weak to quantify, mostly under pKd 3.1 to 4; settings: plain residues with an end cap or a label only (N-terminal biotin on a linker: ado-ado)

How did the pKd turn out when B1 was run?
The pKd was “below the threshold”.

With B2 as the binder, how does the pKd read?
The pKd was “below the threshold”.

target: T2, GRIP1_4, Q9Y3R0; test: holdup assay; parameters: key: below the threshold = too weak to quantify, mostly under pKd 3.1 to 4; settings: plain residues with an end cap or a label only (N-terminal biotin on a linker: ado-ado)

Which pKd does the source give for B1 here?
The pKd was “below the threshold”.

How did the pKd turn out when B2 was run?
The pKd was “below the threshold”.

target: LAP2, Q96RT1; test: holdup assay; parameters: key: below the threshold = too weak to quantify, mostly under pKd 3.1 to 4; settings: plain residues with an end cap or a label only (N-terminal biotin on a linker: ado-ado)
Sequence (Q96RT1 other isoform, or with tags, fused parts or gaps): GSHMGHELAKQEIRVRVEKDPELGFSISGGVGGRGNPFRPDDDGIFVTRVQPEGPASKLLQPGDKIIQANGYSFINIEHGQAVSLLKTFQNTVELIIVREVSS

How did the pKd turn out when B1 was run?
The pKd was 5.58.

With B2 as the binder, how does the pKd read?
Its pKd is “below the threshold”.

target: Inadl_6, Q8NI35; test: holdup assay; parameters: key: below the threshold = too weak to quantify, mostly under pKd 3.1 to 4; settings: plain residues with an end cap or a label only (N-terminal biotin on a linker: ado-ado)
Sequence (Q8NI35 1058-1167): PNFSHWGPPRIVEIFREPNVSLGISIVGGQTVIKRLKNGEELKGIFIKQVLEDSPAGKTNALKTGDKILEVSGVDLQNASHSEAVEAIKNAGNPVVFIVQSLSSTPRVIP

B1 was tested. Which pKd did it give?
Its pKd is 4.37.

B2 was tested. Which pKd did it give?
The pKd was “below the threshold”.

target: Inadl_3, Q8NI35; test: holdup assay; parameters: key: below the threshold = too weak to quantify, mostly under pKd 3.1 to 4; settings: plain residues with an end cap or a label only (N-terminal biotin on a linker: ado-ado)
Sequence (Q8NI35 359-469): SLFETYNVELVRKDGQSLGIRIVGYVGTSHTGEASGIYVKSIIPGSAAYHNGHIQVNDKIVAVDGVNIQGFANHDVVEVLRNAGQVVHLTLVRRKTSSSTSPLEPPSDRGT

How did the pKd turn out when B1 was run?
The pKd was “below the threshold”.

B2 was tested. Which pKd did it give?
The pKd was “below the threshold”.

target: SCRIB_2, Q14160; test: holdup assay; parameters: key: below the threshold = too weak to quantify, mostly under pKd 3.1 to 4; settings: plain residues with an end cap or a label only (N-terminal biotin on a linker: ado-ado)
Sequence (Q14160 857-960): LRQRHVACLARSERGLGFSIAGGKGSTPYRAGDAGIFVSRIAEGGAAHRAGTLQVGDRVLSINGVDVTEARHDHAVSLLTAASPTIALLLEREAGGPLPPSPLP

With B1 as the binder, how does the pKd read?
Its pKd is 4.81.

With B2 as the binder, how does the pKd read?
The pKd was “below the threshold”.

target: T3, SNTB1, Q13884; test: holdup assay; parameters: key: below the threshold = too weak to quantify, mostly under pKd 3.1 to 4; settings: plain residues with an end cap or a label only (N-terminal biotin on a linker: ado-ado)

B1 was tested. Which pKd did it give?
The pKd was 4.23.

With B2 as the binder, how does the pKd read?
Its pKd is 3.6.

target: MAGI2_4, Q86UL8; test: holdup assay; parameters: key: below the threshold = too weak to quantify, mostly under pKd 3.1 to 4; settings: plain residues with an end cap or a label only (N-terminal biotin on a linker: ado-ado)
Sequence (Q86UL8 772-865): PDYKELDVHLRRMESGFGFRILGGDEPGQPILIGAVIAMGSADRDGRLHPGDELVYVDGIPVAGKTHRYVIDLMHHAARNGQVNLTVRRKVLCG

With B1 as the binder, how does the pKd read?
The pKd was 4.34.

How did the pKd turn out when B2 was run?
The pKd was “below the threshold”.

target: LNX1_2, Q8TBB1; test: holdup assay; parameters: key: below the threshold = too weak to quantify, mostly under pKd 3.1 to 4; settings: plain residues with an end cap or a label only (N-terminal biotin on a linker: ado-ado)
Sequence (Q8TBB1 371-470): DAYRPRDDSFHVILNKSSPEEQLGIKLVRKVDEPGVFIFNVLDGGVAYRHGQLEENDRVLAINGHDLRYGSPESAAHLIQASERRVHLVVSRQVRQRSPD

For B1, which pKd is on record?
The pKd was 3.8.

For B2, which pKd is on record?
The pKd was 3.49.

target: T4, APBA3_1, O96018; test: holdup assay; parameters: key: below the threshold = too weak to quantify, mostly under pKd 3.1 to 4; settings: plain residues with an end cap or a label only (N-terminal biotin on a linker: ado-ado)

With B1 as the binder, how does the pKd read?
Its pKd is “below the threshold”.

With B2 as the binder, how does the pKd read?
Its pKd is “below the threshold”.

target: T5, NHERF3_4, Q5T2W1; test: holdup assay; parameters: key: below the threshold = too weak to quantify, mostly under pKd 3.1 to 4; settings: plain residues with an end cap or a label only (N-terminal biotin on a linker: ado-ado)

For B1, which pKd is on record?
The pKd was “below the threshold”.

With B2 as the binder, how does the pKd read?
Its pKd is “below the threshold”.

target: LNX1_3, Q8TBB1; test: holdup assay; parameters: key: below the threshold = too weak to quantify, mostly under pKd 3.1 to 4; settings: plain residues with an end cap or a label only (N-terminal biotin on a linker: ado-ado)
Sequence (Q8TBB1 500-596): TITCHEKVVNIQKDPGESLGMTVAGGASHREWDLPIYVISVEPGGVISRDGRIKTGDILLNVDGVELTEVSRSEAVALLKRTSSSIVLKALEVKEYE

Which pKd does the source give for B1 here?
Its pKd is “below the threshold”.

Which pKd does the source give for B2 here?
Its pKd is “below the threshold”.

target: AHNAK1, Q09666; test: holdup assay; parameters: key: below the threshold = too weak to quantify, mostly under pKd 3.1 to 4; settings: plain residues with an end cap or a label only (N-terminal biotin on a linker: ado-ado)
Sequence (Q09666 4-100): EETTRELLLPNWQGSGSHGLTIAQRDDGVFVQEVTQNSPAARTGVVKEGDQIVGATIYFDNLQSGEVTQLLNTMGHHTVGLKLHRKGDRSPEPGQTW

How did the pKd turn out when B1 was run?
Its pKd is “below the threshold”.

B2 was tested. Which pKd did it give?
Its pKd is “below the threshold”.

target: FRMPD2_2, Q68DX3; test: holdup assay; parameters: key: below the threshold = too weak to quantify, mostly under pKd 3.1 to 4; settings: plain residues with an end cap or a label only (N-terminal biotin on a linker: ado-ado)
Sequence (Q68DX3 944-1038): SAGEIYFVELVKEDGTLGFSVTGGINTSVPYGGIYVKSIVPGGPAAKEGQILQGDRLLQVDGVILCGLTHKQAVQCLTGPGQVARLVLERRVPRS

For B1, which pKd is on record?
The pKd was 4.54.

How did the pKd turn out when B2 was run?
The pKd was “below the threshold”.

target: IL16_4, Q14005; test: holdup assay; parameters: key: below the threshold = too weak to quantify, mostly under pKd 3.1 to 4; settings: plain residues with an end cap or a label only (N-terminal biotin on a linker: ado-ado)
Sequence (Q14005 1229-1329): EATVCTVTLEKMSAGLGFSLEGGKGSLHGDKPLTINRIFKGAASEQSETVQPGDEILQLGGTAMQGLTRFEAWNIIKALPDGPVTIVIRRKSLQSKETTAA

For B1, which pKd is on record?
Its pKd is 3.67.

For B2, which pKd is on record?
Its pKd is “below the threshold”.

target: T6, ARHGEF11, O15085; test: holdup assay; parameters: key: below the threshold = too weak to quantify, mostly under pKd 3.1 to 4; settings: plain residues with an end cap or a label only (N-terminal biotin on a linker: ado-ado)

B1 was tested. Which pKd did it give?
Its pKd is 3.68.

Which pKd does the source give for B2 here?
The pKd was “below the threshold”.

target: T7, HTRA4, P83105; test: holdup assay; parameters: key: below the threshold = too weak to quantify, mostly under pKd 3.1 to 4; settings: plain residues with an end cap or a label only (N-terminal biotin on a linker: ado-ado)

How did the pKd turn out when B1 was run?
The pKd was 4.06.

How did the pKd turn out when B2 was run?
Its pKd is “below the threshold”.

target: T8, TIAM2, Q8IVF5; test: holdup assay; parameters: key: below the threshold = too weak to quantify, mostly under pKd 3.1 to 4; settings: plain residues with an end cap or a label only (N-terminal biotin on a linker: ado-ado)

How did the pKd turn out when B1 was run?
The pKd was “below the threshold”.

B2 was tested. Which pKd did it give?
The pKd was 4.09.

target: T9, PDZRN3_1, Q9UPQ7; test: holdup assay; parameters: key: below the threshold = too weak to quantify, mostly under pKd 3.1 to 4; settings: plain residues with an end cap or a label only (N-terminal biotin on a linker: ado-ado)

B1 was tested. Which pKd did it give?
The pKd was 3.83.

With B2 as the binder, how does the pKd read?
The pKd was “below the threshold”.

target: TJP1_3, Q07157; test: holdup assay; parameters: key: below the threshold = too weak to quantify, mostly under pKd 3.1 to 4; settings: plain residues with an end cap or a label only (N-terminal biotin on a linker: ado-ado)
Sequence (Q07157 416-512): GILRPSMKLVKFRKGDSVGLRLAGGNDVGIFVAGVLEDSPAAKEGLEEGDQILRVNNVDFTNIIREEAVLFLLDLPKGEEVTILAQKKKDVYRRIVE

How did the pKd turn out when B1 was run?
Its pKd is 3.81.

B2 was tested. Which pKd did it give?
The pKd was “below the threshold”.

target: T10, LNX2_3, Q8N448; test: holdup assay; parameters: key: below the threshold = too weak to quantify, mostly under pKd 3.1 to 4; settings: plain residues with an end cap or a label only (N-terminal biotin on a linker: ado-ado)

How did the pKd turn out when B1 was run?
Its pKd is “below the threshold”.

For B2, which pKd is on record?
The pKd was “below the threshold”.

target: T11, PDZD2_2, O15018; test: holdup assay; parameters: key: below the threshold = too weak to quantify, mostly under pKd 3.1 to 4; settings: plain residues with an end cap or a label only (N-terminal biotin on a linker: ado-ado)

For B1, which pKd is on record?
The pKd was 5.99.

With B2 as the binder, how does the pKd read?
The pKd was “below the threshold”.

target: T12, SNTG2, Q9NY99; test: holdup assay; parameters: key: below the threshold = too weak to quantify, mostly under pKd 3.1 to 4; settings: plain residues with an end cap or a label only (N-terminal biotin on a linker: ado-ado)

With B1 as the binder, how does the pKd read?
Its pKd is 3.72.

How did the pKd turn out when B2 was run?
The pKd was “below the threshold”.

target: DLG2_2, Q15700; test: holdup assay; parameters: key: below the threshold = too weak to quantify, mostly under pKd 3.1 to 4; settings: plain residues with an end cap or a label only (N-terminal biotin on a linker: ado-ado)
Sequence (Q15700 189-283): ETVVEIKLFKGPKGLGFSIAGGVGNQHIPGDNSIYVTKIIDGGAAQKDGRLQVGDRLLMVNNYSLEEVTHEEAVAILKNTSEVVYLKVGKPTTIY

For B1, which pKd is on record?
Its pKd is 4.09.

B2 was tested. Which pKd did it give?
The pKd was 3.51.
